Measured values: patent US10704030B2, “P450-BM3 variants with improved activity” (Codexis, Inc., priority 2015, dated 2020)
Positions count from the first letter of the chain named. Numbers in names are those of the source.

B1: SEQ ID NO: 6: P450-BM3 parental backbone from the commercially available MCYP panel (MCYP-0343; Codexis) (protein)
chain: MTIKEMPQPKTFGELKNLPLLNTDKPVQALMKIADELGEIFKFEAPGCVTRYLSSQRLIKEACDESRFDKNLSQALKFARDFLGDGLFTSWTHEINWKKAHNILLPSFSQQAMKGYHAMMVDIAVQLVQKWERLNADEHIEVSEDMTRLTLDTIGLCGFNYRFNSFYRDQPHPFIISMVRALDEVMNKLQRANPDDPAYDENKRQCQEDIKVMNDLVDKIIADRKARGEQSDDLLTQMLNGKDPETGEPLDDGNISYQIITFLIAGHETTSGLLSFALYFLVKNPHVLQKVAEEAARVLVDPVPSYKQVKQLKYVGMVLNEALRLWPTAPAFSLYAKEDTVLGGEYPLEKGDEVMVLIPQLHRDKTIWGDDVEEFRPERFENPSAIPQHAFKPFGNGQRACIGQQFALHEATLVLGMMLKHFDFEDHTNYELDIKETLTLKPEGFVVKAKSKKIPLGGIPSPSTEQSAKKVRKKAENAHNTPLLVLYGSNMGTAEGTARDLADIAMSKGFAPQVATLDSHAGNLPREGAVLIVTASYNGHPPDNAKQFVDWLDQASADEVKGVRYSVFGCGDKNWATTYQKVPAFIDETLAAKGAENIADRGEADASDDFEGTYEEWREHMWSDVAAYFNLDIENSEDNKSTLSLQFVDSAADMPLAKMHGAFSTNVVASKELQQPGSARSTRHLEIELPKEASYQEGDHLGVIPRNYEGIVNRVTARFGLDASQQIRLEAEEEKLAHLPLAKTVSVEELLQYVELQDPVTRTQLRAMAAKTVCPPHKVELEALLEKQAYKEQVLAKRLTMLELLEKYPACEMKFSEFIALLPSIRPRYYSISSSPRVDEKQASITVSVVSGEAWSGYGEYKGIASNYLAELQEGDTITCFISTPQSEFTLPKDPETPLIMVGPGTGVAPFRGFVQARKQLKEQGQSLGEAHLYFGCRSPHEDYLYQEELENAQSEGIITLHTAFSRMPNQPKTYVQHVMEQDGKKLIELLDQGAHFYICGDGSQMAPAVEATLMKSYADVHQVSEADARLWLQQLEEKGRYAKDVWAG
modifications: P450_BM3
B2: Variant 18: P450-BM3 variant of SEQ ID NO:16: K32R; C48S; Y52F; I95P; I176V; L216Y; D232H; E349K; M491A; N574T; E619D; D722S; A767T (protein)
chain: MTIKEMPQPKTFGELKNLPLLNTDKPVQALMRIADELGEIFKFEAPGSVTRFLSSQRLIKEACDESRFDKNLSQALKFARDFLGDGLVTSWTHEPNWKKAHNILLPSFSQQAMKGYHAMMVDIAVQLVQKWERLNADEHIEVSEDMTRLTLDTIGLCGFNYRFNSFYRDQPHPFIVSMVRALDEVMNKLQRANPDDPAYDENKRQCQEDIKVMNDYVDKIIADRKARGEQSHDLLTQMLNGKDPETGEPLDDGNISYQIITFLIAGHETTSGLLSFALYFLVKNPHVLQKVAEEAARVLVDPVPSYKQVKQLKYVGMVLNEALRLWPTAPAFSLYAKEDTVLGGEYPLKKGDEVMVLIPQLHRDKTIWGDDVEEFRPERFENPSAIPQHAFKPFGNGQRACIGQQFALHEATLVLGMMLKHFDFEDHTNYELDIKETLTLKPEGFVVKAKSKKIPLGGIPSPSTEQSAKKVRKKAENAHNTPLLVLYGSNAGTAEGTARDLADIAMSKGFAPQVATLDSHAGNLPREGAVLIVTASYNGHPPDNAKQFVDWLDQASADEVKGVRYSVFGCGDKTWATTYQKVPAFIDETLAAKGAENIADRGEADASDDFEGTYEEWRDHMWSDVAAYFNLDIENSEDNKSTLSLQFVDSAADMPLAKMHGAFSTNVVASKELQQPGSARSTRHLEIELPKEASYQEGDHLGVIPRNYEGIVNRVTARFGLSASQQIRLEAEEEKLAHLPLAKTVSVEELLQYVELQDPVTRTQLRTMAAKTVCPPHKVELEALLEKQAYKEQVLAKRLTMLELLEKYPACEMKFSEFIALLPSIRPRYYSISSSPRVDEKQASITVSVVSGEAWSGYGEYKGIASNYLAELQEGDTITCFISTPQSEFTLPKDPETPLIMVGPGTGVAPFRGFVQARKQLKEQGQSLGEAHLYFGCRSPHEDYLYQEELENAQSEGIITLHTAFSRMPNQPKTYVQHVMEQDGKKLIELLDQGAHFYICGDGSQMAPAVEATLMKSYADVHQVSEADARLWLQQLEEKGRYAKDVWAG
modifications: P450_BM3
notes: C48S; Y52F; I95P; I176V; L216Y; D232H; E349K; M491A; N574T; E619D; D722S; A767T
B3: Variant 19: P450-BM3 variant of SEQ ID NO:16: C48S; Y52F; I95P; Q111R; I176V; L216Y; D232H; P347T; M491A; N574T; D722S (protein)
chain: B2 chain with R32K, Q111R, P347T, K349E, D619E, T767A
modifications: P450_BM3
notes: Y52F; I95P; Q111R; I176V; L216Y; D232H; P347T; M491A; N574T; D722S

What was measured:
Assay type in all cases: biochemical
[1] = Validation of generalist properties: oxidation of imatinib by lyophilized P450-BM3 variant, UPLC-MS; settings: [Imatinib] = 1 mM; for TON: TON = [substrate]*% conversion/[P450]; for FIOPC (F12): fold improvement over parent MCYP-1.2-F12
Summary of the method: (§1)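 Lyophilized lysate of E. coli-expressed P450-BM3 variant (stock standardized to 12 μM heme) was incubated 24 h at 30 °C with 1 or 2 mM substrate, 1.0 mM NADP+, 25 mM glucose, 0.5 mg/mL glucose dehydrogenase and 5% DMSO in 100 mM potassium phosphate. Acetonitrile-quenched samples were analyzed by UPLC-MS (positive ESI).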

[2] = Validation of generalist properties over the four substrates screened
Protocol: For the production of lyophilized protein powders, LB agar plates supplemented with chloramphenicol (30 μg/mL) were streaked with E. coli containing a desired B. megaterium P450-BM3 variant in an IPTG-inducible vector. The plates were grown at 37° C. for 16 hrs before single clones were selected to inoculate a 15 mL Falcon™ tube (Fisher) containing TB media (3 mL) supplemented with chloramphenicol (30 μg/mL). The tube was shaken at 200 rpm, 30° C., and 85% humidity for 20-24 h to grow the cultures to saturation. Then, 2.5 mL of the overnight culture was used to inoculate sterile 1 L flasks containing TB medium (250 mL) supplemented with chloramphenicol (30 μg/mL), trace element solution (as described above), and 0.05 g/L ammonium iron (III) citrate. After being shaken at 250 rpm, 30° C., and 85% humidity to an OD600 of 0.8-1.2, P450 expression was induced by addition of IPTG (500 uM) and the heme precursor 5-aminolevulinic acid (5-ALA) to a final concentration of 500 uM. The cultures were grown for additional 20-24 hours and centrifuged in pre-weighed 250 mL centrifuge bottles for 20 minutes at 4000 rpm, 4° C. The supernatants were discarded, and the centrifuge bottles containing cell pellets were weighed. The pellets were resuspended in 50 mM potassium phosphate buffer with 2 mM DTT, pH 8.0 (5 mL of buffer per gram of cell pellet). The cells were lysed using a microfluidizer homogenizer, and the suspensions of cells and lysate were collected in sterile 50 mL centrifuge tubes. The samples were centrifuged for 30 minutes at 10,000 rpm, 4° C. The clarified lysate was collected into a plastic petri plate and frozen at −80° C. prior to lyophilization. The enzyme-containing lysates were lyophilized using standard methods known in the art.
Enzyme stocks (˜12 μM) were prepared by dissolving ˜20 mg of each enzyme in 100 mM potassium phosphate buffer, pH 8.0 (1 mL). The concentration of each enzyme stock solution was determined by the UV-visible absorption spectroscopy (after centrifugation to remove particulates) and diluted to standardize at 12 μM heme protein. Substrate solutions were prepared by dissolving each substrate in DMSO to reach a final concentration of 20 mM or 40 mM. Reaction mix (235 μL) followed by enzyme solution (50 μL) was added to the plates. The substrate stock solution was added to the enzyme solutions (15 μL at the two different concentrations). Each reaction contained 100 mM potassium phosphate, 1.0 mM NADP+, 25 mM glucose, 0.5 mg/mL glucose dehydrogenase, 5% DMSO and substrate at 1 or 2 mM. Loratadine, imatinib, and gefitinib (See, FIG. 1) were selected as substrates in addition to diclofenac to validate improved BM3 variants. The reactions were shaken at 450 rpm at 30° C. over 24 hours. All reactions were diluted with acetonitrile to a final concentration of 0.5 mM substrate. The plates were then centrifuged at 3,000 g for 1 hour at 20° C. The supernatant was diluted 1:1 with acetonitrile, filtered using a 0.4 micron filter, and analyzed by UPLC-MS.
For UPLC-MS analysis, the quenched and filtered reactions were transferred to 96-well HTP plates for analysis by UPLC on a Waters Acquity H-class system equipped with an autosampler. 1 uL of quenched sample was injected onto an Acquity UPLC HSS T3 column, 100 Å, (1.8 um; 2.1×100 mm). […] Column eluent was monitored by PDA (200-600 nm) prior to MS analysis in positive ESI mode (desolvation temperature 350° C., 3.25 kV spray voltage, cone voltage 25V). […]

[3] = Validation of generalist properties: oxidation of gefitinib by lyophilized P450-BM3 variant, UPLC-MS; settings: [Gefitinib] = 1 mM; for TON: TON = [substrate]*% conversion/[P450]; for FIOPC (F12): fold improvement over parent MCYP-1.2-F12
Summary of the method: as §1

[4] = Validation of generalist properties: oxidation of diclofenac by lyophilized P450-BM3 variant, UPLC-MS; settings: [Diclofenac] = 1 mM; for TON: TON = [substrate]*% conversion/[P450]; for FIOPC (F12): fold improvement over parent MCYP-1.2-F12
Summary of the method: as §1

[5] = Validation of generalist properties: oxidation of loratadine by lyophilized P450-BM3 variant, UPLC-MS; settings: [Loratadine] = 1 mM; for TON: TON = [substrate]*% conversion/[P450]
Summary of the method: as §1

| Molecule | % Conv. [1] | TON [1] | performance (% conversion at 1 mM substrate loading) over the substrates screened, in words [2] | % Conv. [3] | TON [3] | % Conv. [4] | TON [4] | % Conv. [5] | TON [5] | FIOPC (F12) [1] | FIOPC (F12) [3] | FIOPC (F12) [4] | FIOPC (F12) ([5]; fold improvement over parent MCYP-1.2-F12) | FIOPC (F02) ([5]; fold improvement over parent MCYP-P1.2-F02) |
| --- | --- | --- | --- | --- | --- | --- | --- | --- | --- | --- | --- | --- | --- | --- |
| B1 | + (0-5.00) | ‡‡ (1001-5000) | low activity for each substrate screened | ++ (5.01-10.00) | ‡‡ (1001-5000) | ++ (5.01-10.00) | ‡‡ (1001-5000) | + (0-5.00) | ‡ (0-1000) |  |  |  |  |  |
| B2 | +++ (10.01-15.00) | ‡‡‡ (5001-10000) |  | ++++ (15.01-20.00) | ‡‡‡‡ (10000-50000) | ++++ (15.01-20.00) | ‡‡‡‡ (10000-50000) | ++ (5.01-10.00) | ‡‡‡ (5001-10000) | ** (3.01-5.0) | **** (10.01-15.00) | * (0.0-3.0) | * (0.0-3.0) |  |
| B3 | +++ (10.01-15.00) | ‡‡‡ (5001-10000) |  | ++++ (15.01-20.00) | ‡‡‡‡ (10000-50000) | ++++ (15.01-20.00) | ‡‡‡‡ (10000-50000) | +++ (10.01-15.00) | ‡‡‡ (5001-10000) | ** (3.01-5.0) | **** (10.01-15.00) | * (0.0-3.0) |  | * (0.0-3.0) |
